Patent CN116440263A (SHANGHAI JUNSHI BIOSCIENCES CO LTD; JUNMENG BIOSCIENCES CO …, dated 2023)

Molecular target: T1, His标签的重组人CTLA-4抗原蛋白 (human, UniProt P16410 36-161, limits assumed)
T1 construct: Made in-house (君盟自制); also called 重组人CTLA-4蛋白; 人CTLA-4蛋白; not shown: His tag
T1 sequence (looked up): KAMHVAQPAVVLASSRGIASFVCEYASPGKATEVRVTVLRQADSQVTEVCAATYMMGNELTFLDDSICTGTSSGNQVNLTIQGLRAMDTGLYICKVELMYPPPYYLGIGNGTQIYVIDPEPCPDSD
Experiment: SPR (Biacore T200): antibody captured on goat anti-human Fc CM5 chip, His-tagged CTLA-4 0.75-24 nM as analyte, kinetic fit

Kd: 0.206 nM
koff: 0.000169 s⁻¹
kon: 818000 M⁻¹ s⁻¹
B1: huJS007-47 (antibody, V domains shown)
VH: QVQLQESGPGLVKPSQTLSLTCTVSAYSITSGYYWNWIRQHPGKGLEWIGYIGYDGSNNYNPSLKSRVTISRDTSKNQFSLKLSSVTAADTAVYYCARDYYSGYFDSWGQGTTLTVSS
VL: DIQMTQSPSSLSASVGDRVTITCRASQNVGTYVAWYQQKPGKVPKPLIYSTSYRYSGVPSRFSGSGSGTDFTLTISSLQPEDVATYFCHQYDTYPLTFGAGTKLELKR
